Measured values as given in patent publication US20140302043A1.

How the values were obtained:
Experiment in all cases: cell-based or functional assay
[1] = biological target: hemagglutinin (HA) of H1N1 virus strain A/Chile/8885/2001 (influenza A virus H1N1, A/Chile/8885/2001)
[2] = biological target: hemagglutinin (HA) of H1N1 virus strain A/Bangkok/163/2000 (influenza A virus H1N1, A/Bangkok/163/2000)
[3] = biological target: hemagglutinin (HA) of H1N1 virus strain A/Shengzhen/227/1995 (influenza A virus H1N1, A/Shengzhen/227/1995)
[4] = biological target: hemagglutinin (HA) of H1N1 virus strain A/Fujian/156/2000 (influenza A virus H1N1, A/Fujian/156/2000)
[5] = biological target: hemagglutinin (HA) of H1N1 virus strain A/Florida/2/1993 (influenza A virus H1N1, A/Florida/2/1993)
[6] = biological target: hemagglutinin (HA) of H1N1 virus strain A/Brisbane/59/2007 (influenza A virus H1N1, A/Brisbane/59/2007)
[7] = biological target: hemagglutinin (HA) of H1N1 virus strain A/Auckland/65/2001 (influenza A virus H1N1, A/Auckland/65/2001)
[8] = biological target: hemagglutinin (HA) of H1N1 virus strain A/Beijing/262/1995 (influenza A virus H1N1, A/Beijing/262/1995)
[9] = biological target: hemagglutinin (HA) of H1N1 virus strain A/Shanghai/2/1997 (influenza A virus H1N1, A/Shanghai/2/1997)
[10] = biological target: hemagglutinin (HA) of H1N1 virus strain A/Neimenggu/52/2002 (influenza A virus H1N1, A/Neimenggu/52/2002)
[11] = biological target: hemagglutinin (HA) of H1N1 virus strain A/USSR/90/1977 (influenza A virus H1N1, A/USSR/90/1977)
[12] = biological target: hemagglutinin (HA) of H1N1 virus strain A/New Caledonia/22/1999 (influenza A virus H1N1, A/New Caledonia/22/1999)
[13] = biological target: hemagglutinin (HA) of H1N1 virus strain A/Canada/59/2004 (influenza A virus H1N1, A/Canada/59/2004)
[14] = biological target: hemagglutinin (HA) of H1N1 virus strain A/Solomon islands/03/2006, on virus (influenza A virus H1N1, A/Solomon Islands/03/2006)
[15] = biological target: hemagglutinin (HA) of H1N1 virus strain A/Kawasaki/6/1986 (influenza A virus H1N1, A/Kawasaki/6/1986)
[16] = biological target: hemagglutinin (HA) of H1N1 virus strain A/Johannesburg/159/1997 (influenza A virus H1N1, A/Johannesburg/159/1997)
[17] = biological target: hemagglutinin (HA) of H1N1 virus strain A/Moscow/13/1998 (influenza A virus H1N1, A/Moscow/13/1998)
[18] = biological target: hemagglutinin (HA) of H1N1 virus strain A/Ostrava/801/1998 (influenza A virus H1N1, A/Ostrava/801/1998)

mAb CH67 (antibody)
mAb minimum effective concentration (EC99, microneutralization on MDCK cells) [1]: 0.098 µg/mL
mAb minimum effective concentration (EC99, microneutralization on MDCK cells) [2]: 0.098 µg/mL
mAb minimum effective concentration (EC99, microneutralization on MDCK cells) [3]: 0.024 µg/mL
mAb minimum effective concentration (EC99, microneutralization on MDCK cells) [4]: 0.049 µg/mL
mAb minimum effective concentration (EC99, microneutralization on MDCK cells) [5]: 0.012 µg/mL
mAb minimum effective concentration (EC99, microneutralization on MDCK cells) [6]: 0.98 µg/mL
mAb minimum effective concentration (EC99, microneutralization on MDCK cells) [7]: 0.098 µg/mL
mAb minimum effective concentration (EC99, microneutralization on MDCK cells) [8]: 0.098 µg/mL
mAb minimum effective concentration (EC99, microneutralization on MDCK cells) [9]: 0.195 µg/mL
mAb minimum effective concentration (EC99, microneutralization on MDCK cells) [10]: 0.098 µg/mL
mAb minimum effective concentration (EC99, microneutralization on MDCK cells) [11]: 25 µg/mL
mAb minimum effective concentration (EC99, microneutralization on MDCK cells) [12]: 0.195 µg/mL
mAb minimum effective concentration (EC99, microneutralization on MDCK cells) [13]: 0.098 µg/mL
mAb minimum effective concentration (EC99, microneutralization on MDCK cells) [14]: 0.098 µg/mL
mAb minimum effective concentration (EC99, microneutralization on MDCK cells) [15]: 0.39 µg/mL
mAb minimum effective concentration (EC99, microneutralization on MDCK cells) [16]: 0.39 µg/mL
mAb minimum effective concentration (EC99, microneutralization on MDCK cells) [17]: 0.012 µg/mL

mAb CH65, recombinant intact IgG1 (antibody)
mAb minimum effective concentration (EC99, microneutralization on MDCK cells) [1]: 0.195 µg/mL
mAb minimum effective concentration (EC99, microneutralization on MDCK cells) [2]: 0.195 µg/mL
mAb minimum effective concentration (EC99, microneutralization on MDCK cells) [3]: 0.012 µg/mL
mAb minimum effective concentration (EC99, microneutralization on MDCK cells) [4]: 0.488 µg/mL
mAb minimum effective concentration (EC99, microneutralization on MDCK cells) [5]: 0.012 µg/mL
mAb minimum effective concentration (EC99, microneutralization on MDCK cells) [6]: 0.098 µg/mL
mAb minimum effective concentration (EC99, microneutralization on MDCK cells) [7]: 0.195 µg/mL
mAb minimum effective concentration (EC99, microneutralization on MDCK cells) [8]: 0.098 µg/mL
mAb minimum effective concentration (EC99, microneutralization on MDCK cells) [9]: 0.195 µg/mL
mAb minimum effective concentration (EC99, microneutralization on MDCK cells) [18]: 12.5 µg/mL
mAb minimum effective concentration (EC99, microneutralization on MDCK cells) [10]: 0.098 µg/mL
mAb minimum effective concentration (EC99, microneutralization on MDCK cells) [11]: 100 µg/mL
mAb minimum effective concentration (EC99, microneutralization on MDCK cells) [12]: 0.391 µg/mL
mAb minimum effective concentration (EC99, microneutralization on MDCK cells) [13]: 0.098 µg/mL
mAb minimum effective concentration (EC99, microneutralization on MDCK cells) [14]: 0.024 µg/mL
mAb minimum effective concentration (EC99, microneutralization on MDCK cells) [15]: 0.098 µg/mL
mAb minimum effective concentration (EC99, microneutralization on MDCK cells) [16]: 0.098 µg/mL
mAb minimum effective concentration (EC99, microneutralization on MDCK cells) [17]: 0.012 µg/mL
